# Measurements published in the supplement of paper PMC9112550, “Optimization of the antimicrobial peptide Bac7 by deep mutational scanning” (BMC Biology, 2022).
# Test system: Escherichia coli TOP10
# Test: shrunken log2 fold change of peptide-encoding DNA abundance (4.5 h post-induction vs induction); higher = less antimicrobial activity (less host growth inhibition)
# Details: time post-induction: 4.5 h; library: site-saturation at positions 5, 18, 19, 20
# 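Further: peptides expressed intracellularly from a pBAD plasmid library in pooled LB shake-flask culture, induced with 0.3% L-arabinose, DNA abundance read by NGS, three biological replicates, DESeq2 with apeglm shrinkage.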
row,Sequence,shrunken log2 fold change
1,RRIRVRPPRLPRPRPRPSIRPRP,-0.285
2,RRIRLRPPRLPRPRPRPPDYPRP,-0.199
3,RRIRHRPPRLPRPRPRPSHKPRP,-0.718
4,RRIRCRPPRLPRPRPRPKQTPRP,-0.0521
5,RRIRWRPPRLPRPRPRPTDKPRP,-0.0481
6,RRIRERPPRLPRPRPRPRESPRP,-0.329
7,RRIRKRPPRLPRPRPRPHYRPRP,0.0224
8,RRIRNRPPRLPRPRPRPWCLPRP,-0.472
9,RRIRARPPRLPRPRPRPLHEPRP,0.314
10,RRIRMRPPRLPRPRPRPEYRPRP,-0.000921
11,RRIRWRPPRLPRPRPRPYACPRP,-0.355
12,RRIRNRPPRLPRPRPRPVVSPRP,-0.153
13,RRIRDRPPRLPRPRPRPDLSPRP,0.0253
14,RRIRHRPPRLPRPRPRPDNQPRP,-0.0673
15,RRIRYRPPRLPRPRPRPVRMPRP,-0.246
16,RRIRRRPPRLPRPRPRPALTPRP,0.258
17,RRIRWRPPRLPRPRPRPPIHPRP,-0.448
18,RRIRQRPPRLPRPRPRPMKTPRP,0.0802
19,RRIRNRPPRLPRPRPRPAWMPRP,0.056
20,RRIRFRPPRLPRPRPRPAKKPRP,0.188

row,Sequence,shrunken log2 fold change
1,RRIRTRPPRLPRPRPRPRRGPRP,0.604
2,RRIRYRPPRLPRPRPRPQCVPRP,-0.127
3,RRIRCRPPRLPRPRPRPGSTPRP,-0.474
4,RRIRDRPPRLPRPRPRPWSNPRP,-0.678
5,RRIRWRPPRLPRPRPRPVWIPRP,0.142
6,RRIRQRPPRLPRPRPRPPEAPRP,0.243
7,RRIRMRPPRLPRPRPRPVENPRP,-0.0952
8,RRIRYRPPRLPRPRPRPWVEPRP,0.0344
9,RRIRQRPPRLPRPRPRPGWLPRP,0.193
10,RRIRDRPPRLPRPRPRPAFFPRP,0.342
11,RRIRSRPPRLPRPRPRPMFVPRP,-0.0773
12,RRIRVRPPRLPRPRPRPMWWPRP,-0.0322
13,RRIRARPPRLPRPRPRPWIKPRP,-0.0328
14,RRIRIRPPRLPRPRPRPDARPRP,0.262
15,RRIRFRPPRLPRPRPRPRARPRP,0.661
16,RRIRNRPPRLPRPRPRPPQDPRP,0.0281
17,RRIRNRPPRLPRPRPRPGPQPRP,0.0395
18,RRIRKRPPRLPRPRPRPGLPPRP,0.348
19,RRIRYRPPRLPRPRPRPHFVPRP,-0.182
20,RRIRERPPRLPRPRPRPYHPPRP,-0.248

row,Sequence,shrunken log2 fold change
1,RRIRFRPPRLPRPRPRPTWKPRP,0.32
2,RRIRRRPPRLPRPRPRPYAGPRP,-0.137
3,RRIRWRPPRLPRPRPRPIINPRP,-0.609
4,RRIRIRPPRLPRPRPRPNETPRP,-0.0216
5,RRIRCRPPRLPRPRPRPKGKPRP,0.328
6,RRIRQRPPRLPRPRPRPTGGPRP,0.0146
7,RRIRTRPPRLPRPRPRPFPSPRP,0.0745
8,RRIRVRPPRLPRPRPRPRWTPRP,-0.142
9,RRIRNRPPRLPRPRPRPPQHPRP,0.149
10,RRIRTRPPRLPRPRPRPLTVPRP,-0.267
11,RRIRNRPPRLPRPRPRPFQKPRP,-0.185
12,RRIRPRPPRLPRPRPRPWQYPRP,0.0173
13,RRIRVRPPRLPRPRPRPRCHPRP,0.115
14,RRIRYRPPRLPRPRPRPYTDPRP,-0.396
15,RRIRGRPPRLPRPRPRPIYMPRP,-0.191
16,RRIRCRPPRLPRPRPRPLRVPRP,0.0985
17,RRIRNRPPRLPRPRPRPSNTPRP,-0.446
18,RRIRYRPPRLPRPRPRPRSGPRP,-0.0667
19,RRIRIRPPRLPRPRPRPKCIPRP,-0.399
20,RRIRPRPPRLPRPRPRPMQEPRP,-0.0107
